Data as given in US20050107585A1 (UNIVERSITY OF KANSAS, published 2005).
Where no end group is shown, it is not given here. [ ]: non-standard residue; d: D form. Ahx = NCCCCCC(=O)O

How the values were obtained:
[1] = target: T1, ICAM-1 on NOD mouse APC / spleen cells (mouse (NOD), UniProt P13597 28-537); test: flow cytometry on live APC, blocking by mAb
T1 construct: whole, on cells; Native ICAM-1 on live NOD spleen cells
Description: J. Immunol. 2337-2344 (1994). Spleen cell density-gradient fractions from normal (unimmunized) NOD, BALB/c and other MHC congenic strains were incubated in round bottom 96-well plates with increasing concentrations of individual biotinylated peptides at 37° C.,5% CO₂ for 16 hours. Following binding of the BPI to the APC, Avidin-FITC was incubated with the cells on ice for 30 minutes, followed bybiotinylated anti-Avidin for 1 hour, then again with Avidin-FITC. For BPI titrations, increasing concentrations (0.1-100 μM) of the biotinylated derivatives in sterile 0.5% BSA-PBS were incubated with the APC for 16 hours as above.
To test for competitive inhibition of BPI binding with unlabeled peptides or monoclonal antibodies to MHC-II and ICAM-1 on live APC, freshly isolated fractions of spleen cells were incubated with the previously biotinylated BPI. However, for this portion of the experiment, the experimental wells contained various unlabeled peptides (e.g., antigenic peptides or LFA-1 peptides), and/or monoclonal antibody (e.g., anti-MHC-II or anti-ICAM-1 mAb) inhibitors. Negative selection methods with monoclonal antibodies conjugated to magnetic particles were used to enrich the spleen cell fractions for B cells, macrophages, or dendritic cells as well as to examine differences in BPI binding to these different populations. […]

[2] = target: T1, ICAM-1 on NOD mouse APC / spleen cells; test: co-capping, fluorescence microscopy, T-depleted spleenocytes of NOD mice given the BPI i.v.
Description: To test the ability of the BPI peptide to link MHC-II and ICAM-1 molecules on the APC surface, we used a modification of a co-capping experiment originally described for monoclonal antibodies. […] Antibody-bound cells are then incubated with streptavidin (37 C×15 min.) to cap the MHC-II molecules on the APC surface. The cells were transferred to ice and labeled with a fluorescent (PE) monoclonal antibody to ICAM-1 (3E2). The cells are plated and observed for evidence that a given BPI links ICAM-1 into the MHC-II cap, i.e., by standard fluorescence microscopy and image analysis.

T1 sequence (P13597 28-537): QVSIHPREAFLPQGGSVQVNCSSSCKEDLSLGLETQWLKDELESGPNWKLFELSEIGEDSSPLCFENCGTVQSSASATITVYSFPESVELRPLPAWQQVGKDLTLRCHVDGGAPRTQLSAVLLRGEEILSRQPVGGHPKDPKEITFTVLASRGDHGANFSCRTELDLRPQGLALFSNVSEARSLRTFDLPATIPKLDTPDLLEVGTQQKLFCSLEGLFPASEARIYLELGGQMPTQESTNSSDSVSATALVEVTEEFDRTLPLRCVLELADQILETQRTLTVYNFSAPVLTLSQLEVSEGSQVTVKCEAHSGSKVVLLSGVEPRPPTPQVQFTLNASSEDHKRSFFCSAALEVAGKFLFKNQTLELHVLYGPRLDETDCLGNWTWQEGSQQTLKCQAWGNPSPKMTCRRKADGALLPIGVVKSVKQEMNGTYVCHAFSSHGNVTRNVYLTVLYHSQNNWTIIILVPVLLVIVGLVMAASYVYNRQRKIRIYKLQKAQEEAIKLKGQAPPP

Row | Binder | binding result [1] | binding result [2]
1 | EIAPVFVLLE[Ahx]G[Ahx]G[Ahx]ITDGEATDSG (also: biotinylated with NHS-Biotin, site not given here, also called diabetes BPI; GAD 65 BPI) [biotinylated EGAD-BPI (GAD65(208-217)-[Ac-G-Ac-G-Ac]-CD11a (237-247))] | binds | 
2 | EIAPVFVLLE[Ahx]G[Ahx]G[Ahx]ITDGEATDSG (also called diabetes BPI) [EGAD-BPI (GAD65(208-217)-[Ac-G-Ac-G-Ac]-CD11a (237-247)), unlabeled] |  | binds
